Measured values: US9068000B2, “Monoclonal antibodies for enhancing or inhibiting insulin-like growth factor-I” (The University of North Carolina at Chapel Hill, priority 2004, dated 2015)
No end group written: not given here.

B1: connective tissue growth factor (protein)
chain: QNCSGPCRCPDEPAPRCPAGVSLVLDGCGCCRVCAKQLGELCTERDPCDPHKGLFCHFGSPANRKIGVCTAKDGAPCIFGGTVYRSGESFQSSCKYQCTCLDGAVGCMPLCSMDVRLPSPDCPFPRRVKLPGKCCEEWVCDEPKDQTVVGPALAAYRLEDTFGPDPTMIRANCLVQTTEWSACSKTCGMGISTRVTNDNASCRLEKQSRLCMVRPCEADLEENIKKGKKCIRTPKISKPIKFELSGCTSMKTYRAKFCGVCTDGRCCTPHRTTTLPVEFKCPDGEVMKKNMMFIKTCACHYNCPGDNDIFESLYYRKMYGDMA

Columns and labels:
IGF-I receptor = assay: Activation of the IGF-I receptor by IGF-I; format: cell-based
Source text: (§1) Modification of IGF-I actions. […] These assays include but are not totally limited to the following: β3 subunit phosphorylation, β3 binding to SHPS-1, and integrin associated protein (IAP) as a complex, the association of IAP with SHPS-1, SHPS-1 phosphorylation and Shc recruitment to SHPS-1, Shc phosphorylation, stimulation of DNA synthesis and cell replication or cell migration. Ligands that bind to β3 through the cysteine loop domain often induce both conformational changes and β3 phosphorylation. Similarly, stimulation of β3 phosphorylation can induce a conformational change in β3 secondarily. β3 phosphorylation is measured by applying the compound that binds to β3 to smooth muscle and endothelial cells in culture. […] The lysates are either analyzed directly by immunoblotting for β3 to measure […] or immunoprecipitated with an anti β3 antibody and then immunoblotted for phosphotyrosine. Immunoblotting is analyzed following separation of the proteins contained in 30 μl of cell lysate by SDS polyacrylamide gel electrophoresis (SDS-PAGE). […] The amount of phosphorylated β3 is then determined by SDS-PAGE followed by immunoblotting with a monoclonal anti-phosphotyrosine antibody (PY99) (Ling Y, Maile L A, Clemmons D R, Mol Endocrinol, 17:1824-1833 (2003)).

IGF-I = IGF-I biologic actions (DNA synthesis, cell migration, protein synthesis); format: cell-based
Protocol: Cell Replication. Smooth muscle and/or endothelium are plated at relatively low density, 10^4/cm^2 in low serum (0.2%) containing medium. 24 hr after plating, cells are quiesced in 0.2% platelet poor plasma containing medium. 24 hr later the cultures are exposed to increasing concentrations of IGF-I between 0 and 100 ng/ml and the β3 agonists or antagonists. After 48 hr, the cell cultures are stained with trypan blue and the cell number is determined by manual counting. If β3 is occupied by an agonist then there is at least a 2 fold increase in cell number over this time period. Whereas if an antagonist is added there is often less than 20% increase in cell number.
Cell Migration. Confluent quiescent smooth muscle or endothelial cell cultures are wounded with a razor blade as described in Maile L A, Imai Y, Clarke J B, Clemmons D R, J. Biol. Chem., 277:1800-1805 (2002). The wounds are examined to determine that a straight edge has been obtained and there are no grooves in the plate. At least five areas that are correctly wounded are then identified with a color marker. IGF-I is added at concentrations of either 50 or 100 ng/ml and various concentrations of the angonists or antagonists are added to at least duplicate cultures. After 72 hr the number of cells that have migrated at least 50 microns from the wound edge are determined and counted following staining with methylene blue. […]

β3 phosphorylation = assay: β3 phosphorylation, SHP-2 transfer and enhancement of IGF-I receptor activation; format: cell-based
Source text: as §1

αVβ3 integrin = αVβ3 integrin (Homo sapiens, UniProt P05106); assay: Binding of peptides/ligands to the cysteine loop region of αVβ3
Source text: As noted above, the agonists bind to a specific region on the αVβ3 integrin receptor that has not been identified previously as a region that would result in receptor activation. All agonists that we have determined to bind in this region contain a region of sequence that is commonly termed a heparin binding domain. This heparin binding domain is present in 5 ligands that we have found to date that bind to this region of αVβ3. The documentation that they bind to a specific region of αVβ3 has been provided by two types of experiments. First we have a polyclonal antibody that is known to react with this region of αVβ3, which is the region of the β3 subunit that is located between amino acids at positions 177 and 183.
A more definitive experiment was conducted in which the identical region of the β1 integrin was substituted by mutagenesis for this […] amino acid region within β3. […] Binding assays were then conducted using these ligands.

Chain of αVβ3 integrin (P05106 27-788): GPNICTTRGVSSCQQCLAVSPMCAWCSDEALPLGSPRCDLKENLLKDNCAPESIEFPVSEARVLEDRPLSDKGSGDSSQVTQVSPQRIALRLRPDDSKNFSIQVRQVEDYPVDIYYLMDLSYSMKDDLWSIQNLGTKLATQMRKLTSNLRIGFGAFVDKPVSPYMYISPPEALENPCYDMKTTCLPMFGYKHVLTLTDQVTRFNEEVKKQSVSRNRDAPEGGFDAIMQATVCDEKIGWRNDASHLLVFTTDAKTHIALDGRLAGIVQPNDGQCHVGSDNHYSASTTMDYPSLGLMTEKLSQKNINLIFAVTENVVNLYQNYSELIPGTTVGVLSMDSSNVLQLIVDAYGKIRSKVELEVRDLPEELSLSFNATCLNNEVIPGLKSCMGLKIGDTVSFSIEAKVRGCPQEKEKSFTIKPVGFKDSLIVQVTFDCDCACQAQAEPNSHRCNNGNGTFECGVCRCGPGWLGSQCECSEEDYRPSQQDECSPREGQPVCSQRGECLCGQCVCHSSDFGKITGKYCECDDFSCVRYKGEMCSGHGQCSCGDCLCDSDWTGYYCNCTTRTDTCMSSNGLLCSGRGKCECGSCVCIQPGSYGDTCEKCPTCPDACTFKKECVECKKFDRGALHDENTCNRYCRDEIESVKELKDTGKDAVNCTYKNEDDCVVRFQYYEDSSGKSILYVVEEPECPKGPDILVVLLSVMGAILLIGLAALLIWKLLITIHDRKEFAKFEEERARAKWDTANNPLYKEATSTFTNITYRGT
Chain of αVβ3 integrin (P06756 31-889 partner limits assumed): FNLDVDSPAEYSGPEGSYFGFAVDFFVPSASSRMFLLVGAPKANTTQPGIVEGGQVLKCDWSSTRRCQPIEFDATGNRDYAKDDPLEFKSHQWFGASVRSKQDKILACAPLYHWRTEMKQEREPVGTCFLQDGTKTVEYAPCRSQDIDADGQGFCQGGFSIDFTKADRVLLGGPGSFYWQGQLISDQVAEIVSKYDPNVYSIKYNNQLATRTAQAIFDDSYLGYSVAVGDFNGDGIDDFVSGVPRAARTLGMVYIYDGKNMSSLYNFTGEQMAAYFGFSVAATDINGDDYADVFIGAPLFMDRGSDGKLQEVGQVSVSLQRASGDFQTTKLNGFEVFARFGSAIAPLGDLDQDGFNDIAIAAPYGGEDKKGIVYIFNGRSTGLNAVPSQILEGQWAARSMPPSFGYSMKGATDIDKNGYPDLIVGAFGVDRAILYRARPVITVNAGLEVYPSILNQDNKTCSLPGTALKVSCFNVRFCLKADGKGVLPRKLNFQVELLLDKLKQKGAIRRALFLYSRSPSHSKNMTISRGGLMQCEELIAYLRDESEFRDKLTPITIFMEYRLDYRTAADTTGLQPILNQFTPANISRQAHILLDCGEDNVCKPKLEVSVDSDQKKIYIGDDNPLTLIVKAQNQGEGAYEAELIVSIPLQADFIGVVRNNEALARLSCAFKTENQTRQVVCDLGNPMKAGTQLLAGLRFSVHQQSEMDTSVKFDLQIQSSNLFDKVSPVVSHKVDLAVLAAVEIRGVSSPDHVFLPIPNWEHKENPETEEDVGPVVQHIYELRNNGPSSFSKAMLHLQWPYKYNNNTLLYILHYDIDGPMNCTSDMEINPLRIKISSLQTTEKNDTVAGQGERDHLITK
Chain of αVβ3 integrin (P06756 891-1048 partner limits assumed): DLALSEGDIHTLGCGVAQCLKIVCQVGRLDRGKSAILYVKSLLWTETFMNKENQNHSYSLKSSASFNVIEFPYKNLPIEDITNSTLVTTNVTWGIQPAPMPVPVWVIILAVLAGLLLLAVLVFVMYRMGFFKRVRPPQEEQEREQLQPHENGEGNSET

Row | Molecule | binding to αVβ3 / β3 cysteine loop region (αVβ3 integrin) | further results
1 | KKQRFRHL (Synthetic IGF-I antagonist) [IGF-I antagonist peptide] |  | inhibition of activation of the IGF-I receptor by IGF-I (IGF-I receptor): approximately 60%; inhibitory activity on IGF-I actions in biologic assays (IGF-I): inhibitory activity
2 | KKQRFRHR (AlphaV beta3 binding sequence from vitronectin) |  | stimulation of β3 phosphorylation, SHP-2 transfer to downstream signaling molecules and enhancement of IGF-I receptor activation in response to IGF-I (β3 phosphorylation): full stimulation
3 | cyclized peptide containing this sequence: a cyclized peptide containing the sequence KKQRFRHL (also: cyclized, mode and places not given here) |  | inhibitor potency compared with linear KKQRFRHL (IGF-I): more potent inhibitor
4 | heparin binding epidermal growth factor | shown to bind | 
5 | insulin-like binding protein-5 (RKGFYKRK) [IGFBP-5] | shown to bind | 
6 | osteopontin | shown to bind | 
7 | vitronectin | shown to bind | 
8 | B1 | shown to bind | 
